Each block holds one molecule with its values, some of them ahead of it. Square brackets hold non-standard residues; d marks the D form. Ends that are not written are not given here. Nle = CCCC[C@H](N)C(=O)O
Key:
[1] = tested on: intestine epithelium (crypts plus villi); test: Crypts plus villi length, histopathology of small intestine; type: in vivo, SD rats
Protocol: In addition to PEG30-FMS-V4 and PEG30-Fmoc-V4 that have been pharmacology evaluated by small intestinal weight evaluation (As shown in Example 5), four other reversible PEGylated variant 4 (“V4”) conjugates and two reversible linker-V4 conjugates were synthesized. All the above were injected to 6 normal SD rats/group once at 2 mg/kg (peptide dose), while on the 6th day, animals were scarified, and the small intestine was weighted followed by histopathology evaluation. […] Therefore, slices from three areas of the intestine (duodenum, jejunum and ilium) were stained with hematoxylin and eosin and at least 7 Crypts+Villi length/slice were measured. The averaged Villi+Crypt length of each treatment group (n=6) was compared to the vehicle group (negative control) and calculated as percentage increase over vehicle. […]
An additional study to evaluate the efficacy and the longevity of V4 and Cys-FMS-V4 was conducted (Study reference 15204) in which the animals were sacrificed on Days 6 (N=6), 10 (N=4) and 14 (N=4). This experiment measured the pharmacological response compared to the commercially approved SBS treatment drug Gattex. In addition, two new conjugates were tested by conjugating V4 to reduced OSu-linker and Cys-FMS-V4 purified from resin. The animals were injected with a single SC injection at Day 1 with 2 mg/kg peptide content of V4, Cys-FMS-V4, FMS-OSu-V4, Apraglutide and Glepaglutide while Gattex was SC injected daily at 2.5 mg/kg peptide content. […]

small intestine = test: Intestine weight model in rats; type: in vivo, SD rats; details: normal SD rats; injected once at 2 mg/kg peptide dose; 6th day
Protocol: In the pharmacology study, the conjugates were injected subcutaneously twice, on days 1 and 3 at 1 mg/kg (peptide dose) and intestine weight was performed on day 6. In addition to the PEGylated conjugates, GLP-2-Gly2 was injected at the same dose and regimen for comparison. The average of the intestine weight of each group was compared to that of the vehicle group.
In a different study, several of the PEGylated teduglutide were injected as a single dose at 1 mg/kg and the intestine weight performed on day 6.
Pharmacology and pharmacokinetic studies were performed with the most promising GLP-2 variants to evaluate their efficacy and longevity, respectively. The intestine weight model in rats was conducted to evaluate efficacy, by measuring percent increase of the intestine weight of treated animals over the vehicle group. In this study, the peptides were injected twice, on days 1 and 3 at 1 mg/kg and the intestine weight was conducted on day 6.
PEG20-FMS-V6, PEG20-Fmoc-V6 and PEG40-FMS-V6 were injected once at 1 mg/kg dose on day 1, while group D was also injected twice on days 1 & 3 at 1 mg/kg. The intestine weight was performed on day 6.
Three different reversible PEGylated GLP-2 variants using mutated peptide #4 were injected at 2 mg/kg (peptide dose), once every 6 days for 12 days. On the 12th day the intestine was weighted and compared to the control group. PEG30-FMS-V4 was injected at 0.5 mg/kg as well to evaluate the efficacy dose range.
In addition to PEG30-FMS-V4 and PEG30-Fmoc-V4 that have been pharmacology evaluated by small intestinal weight evaluation (As shown in Example 5), four other reversible PEGylated variant 4 (“V4”) conjugates and two reversible linker-V4 conjugates were synthesized. All the above were injected to 6 normal SD rats/group once at 2 mg/kg (peptide dose), while on the 6th day, animals were scarified, and the small intestine was weighted followed by histopathology evaluation. […] Therefore, slices from three areas of the intestine (duodenum, jejunum and ilium) were stained with hematoxylin and eosin and at least 7 Crypts+Villi length/slice were measured. The averaged Villi+Crypt length of each treatment group (n=6) was compared to the vehicle group (negative control) and calculated as percentage increase over vehicle.
Additional studies were conducted to evaluate the efficacy of the V4 peptide and the reversible MAL-FMS-V4. The long acting effect of V4 and the conjugates were evaluated at Day 6 and Day 10 following treatment (Study reference 15203). All test groups (n=9) were injected SC with 2 mg/kg peptide content at Day 1. At Days 6 and 10, animals were sacrificed and the small intestine underwent histopathology evaluation (6 animals for Day 6, 3 animals for Day 10). FIGS. 12 and 13 show the pharmacology effect of different V4 conjugates and Apraglutide and Glepaglutide as measured by the percent increase of small intestine weight and crypts plus villi length over vehicle, respectively.
To further evaluate the pharmacology efficacy of V4 and Cys-FMS-V4, an experiment was performed to test their acute and prolonged effect on the small intestine (Study reference 15205). In addition, V4 and Cys-FMS-V4 were administrated as a single SC injection on Day 1 at 3 different doses (0.5, 2.0 or 8.0 mg/kg peptide content, 6 rats per group) to assess the dose dependence effect. The pharmacological effect on small intestine weight and villi plus crypts length was measured at Days 3, 7 and 14, and the results are presented in FIGS. 15 and 16. […] It should be noted that this acute response was higher for V4 compared to Cys-FMS-V4 at all 3 dose levels.

GLP-2 receptor [2] = biological target: T1, GLP-2 receptor (UniProt O95838 1-553, limits assumed); test: cell-based or functional assay
T1 sequence (looked up): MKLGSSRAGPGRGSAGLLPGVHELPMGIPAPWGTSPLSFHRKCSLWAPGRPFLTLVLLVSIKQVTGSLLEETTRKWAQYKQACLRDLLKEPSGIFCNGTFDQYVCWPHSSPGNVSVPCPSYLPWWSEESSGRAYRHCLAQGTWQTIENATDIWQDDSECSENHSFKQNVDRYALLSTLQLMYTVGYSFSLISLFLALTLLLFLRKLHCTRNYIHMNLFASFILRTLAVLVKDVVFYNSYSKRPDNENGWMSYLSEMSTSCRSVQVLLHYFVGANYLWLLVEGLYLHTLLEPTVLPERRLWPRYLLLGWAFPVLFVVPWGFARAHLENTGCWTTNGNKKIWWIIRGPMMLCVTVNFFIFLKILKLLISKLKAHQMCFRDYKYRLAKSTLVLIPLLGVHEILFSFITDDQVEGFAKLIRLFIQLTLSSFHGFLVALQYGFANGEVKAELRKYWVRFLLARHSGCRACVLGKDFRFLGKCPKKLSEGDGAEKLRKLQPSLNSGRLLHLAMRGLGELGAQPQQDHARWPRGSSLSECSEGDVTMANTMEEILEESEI

GLP-2 receptor [3] = biological target: GLP-2 receptor (UniProt O95838); test: cell-based or functional assay

EC50 Ratio to Teduglutide, CBA (GLP-2 receptor [2]): 2.4 fold | EC50 [nM], Cell Based Assay (CBA), cells overexpressing the GLP-2 receptor (GLP-2 receptor [2]): 13.6 nM
B2: GLP-2 Variant #5 (peptide)
peptide: H-HGEGSFSDE[Nle]NTILDYLAARDFINWLIQTKITD-NH2
SMILES: CCCC[C@H](NC(=O)[C@H](CCC(=O)O)NC(=O)[C@H](CC(=O)O)NC(=O)[C@H](CO)NC(=O)[C@H](Cc1ccccc1)NC(=O)[C@H](CO)NC(=O)CNC(=O)[C@H](CCC(=O)O)NC(=O)CNC(=O)[C@@H](N)Cc1c[nH]cn1)C(=O)N[C@@H](CC(N)=O)C(=O)N[C@H](C(=O)N[C@H](C(=O)N[C@@H](CC(C)C)C(=O)N[C@@H](CC(=O)O)C(=O)N[C@@H](Cc1ccc(O)cc1)C(=O)N[C@@H](CC(C)C)C(=O)N[C@@H](C)C(=O)N[C@@H](C)C(=O)N[C@@H](CCCNC(=N)N)C(=O)N[C@@H](CC(=O)O)C(=O)N[C@@H](Cc1ccccc1)C(=O)N[C@H](C(=O)N[C@@H](CC(N)=O)C(=O)N[C@@H](Cc1c[nH]c2ccccc12)C(=O)N[C@@H](CC(C)C)C(=O)N[C@H](C(=O)N[C@@H](CCC(N)=O)C(=O)N[C@H](C(=O)N[C@@H](CCCCN)C(=O)N[C@H](C(=O)N[C@H](C(=O)N[C@@H](CC(=O)O)C(N)=O)[C@@H](C)O)[C@@H](C)CC)[C@@H](C)O)[C@@H](C)CC)[C@@H](C)CC)[C@@H](C)CC)[C@@H](C)O

EC50 (nM) Average, GLP2-receptor CBA, 3 independent assays (GLP-2 receptor [3]): 1.7 nM | EC50 Ratio to Teduglutide, GLP2-receptor CBA (GLP-2 receptor [3]): 2.9 fold | EC50 Ratio to Variant 4, GLP2-receptor CBA (GLP-2 receptor [3]): 1.6 fold
B3: Apraglutide (V1) (peptide)
peptide: HGDGSFSDE[Nle][dF]TILDLLAARDFINWLIQTKITD-NH2

Second part, the molecule before the results:

Molecule: MAL-FMS-V4 (HGEGSFSDE[Nle]NTILDLLAARDFINWLIQTKITD-NH2; also: MAL-FMS conjugate, place not given here)
Percent increase of Crypts+Villi length over vehicle (FIG. 3) ([1]; Study 15201, 0.5 and 2 mg/kg peptide dose once, 6 days after injection): dose dependent pharmacology effect on the intestine epithelium | Percent increase of Crypts plus Villi length over vehicle (FIG. 1) ([1]; injected once at 2 mg/kg peptide dose, 6th day): showed the most pronounce effect on the intestine epithelium | Avg. small intestine weight (gr) (small intestine): 7.0 gr

B1: GLP-2 Variant #3 (peptide)
peptide: H-HGEGSFSDE[Nle][dH]TILDNLAARDFINWLIQTKITD-NH2
SMILES: CCCC[C@H](NC(=O)[C@H](CCC(=O)O)NC(=O)[C@H](CC(=O)O)NC(=O)[C@H](CO)NC(=O)[C@H](Cc1ccccc1)NC(=O)[C@H](CO)NC(=O)CNC(=O)[C@H](CCC(=O)O)NC(=O)CNC(=O)[C@@H](N)Cc1c[nH]cn1)C(=O)N[C@H](Cc1c[nH]cn1)C(=O)N[C@H](C(=O)N[C@H](C(=O)N[C@@H](CC(C)C)C(=O)N[C@@H](CC(=O)O)C(=O)N[C@@H](CC(N)=O)C(=O)N[C@@H](CC(C)C)C(=O)N[C@@H](C)C(=O)N[C@@H](C)C(=O)N[C@@H](CCCNC(=N)N)C(=O)N[C@@H](CC(=O)O)C(=O)N[C@@H](Cc1ccccc1)C(=O)N[C@H](C(=O)N[C@@H](CC(N)=O)C(=O)N[C@@H](Cc1c[nH]c2ccccc12)C(=O)N[C@@H](CC(C)C)C(=O)N[C@H](C(=O)N[C@@H](CCC(N)=O)C(=O)N[C@H](C(=O)N[C@@H](CCCCN)C(=O)N[C@H](C(=O)N[C@H](C(=O)N[C@@H](CC(=O)O)C(N)=O)[C@@H](C)O)[C@@H](C)CC)[C@@H](C)O)[C@@H](C)CC)[C@@H](C)CC)[C@@H](C)CC)[C@@H](C)O
EC50 Ratio to Teduglutide, CBA (GLP-2 receptor [2]): 2.5 fold | EC50 [nM], Cell Based Assay (CBA), cells overexpressing the GLP-2 receptor (GLP-2 receptor [2]): 14.2 nM
